Measured values: patent US20240182536A1 (MURAL ONCOLOGY, published 2024)

Key:
[1] = biological target: T1, mouse IL-18 binding protein (mouse, UniProt Q9Z0M9 29-193); assay: cell-based or functional assay
T1 sequence (looked up): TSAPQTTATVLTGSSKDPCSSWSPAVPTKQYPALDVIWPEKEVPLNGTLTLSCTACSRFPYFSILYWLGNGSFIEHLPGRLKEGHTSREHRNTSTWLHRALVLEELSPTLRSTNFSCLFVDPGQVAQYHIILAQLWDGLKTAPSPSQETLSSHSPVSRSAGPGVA

[2] = biological target: T2, mouse IL-18 receptors on PathHunter U2OS mIL18-NF-kb reporter cells (mouse, UniProt Q61098 20-537; Q9Z2B1 20-614); assay: cell-based or functional assay
T2 sequence (looked up) 1: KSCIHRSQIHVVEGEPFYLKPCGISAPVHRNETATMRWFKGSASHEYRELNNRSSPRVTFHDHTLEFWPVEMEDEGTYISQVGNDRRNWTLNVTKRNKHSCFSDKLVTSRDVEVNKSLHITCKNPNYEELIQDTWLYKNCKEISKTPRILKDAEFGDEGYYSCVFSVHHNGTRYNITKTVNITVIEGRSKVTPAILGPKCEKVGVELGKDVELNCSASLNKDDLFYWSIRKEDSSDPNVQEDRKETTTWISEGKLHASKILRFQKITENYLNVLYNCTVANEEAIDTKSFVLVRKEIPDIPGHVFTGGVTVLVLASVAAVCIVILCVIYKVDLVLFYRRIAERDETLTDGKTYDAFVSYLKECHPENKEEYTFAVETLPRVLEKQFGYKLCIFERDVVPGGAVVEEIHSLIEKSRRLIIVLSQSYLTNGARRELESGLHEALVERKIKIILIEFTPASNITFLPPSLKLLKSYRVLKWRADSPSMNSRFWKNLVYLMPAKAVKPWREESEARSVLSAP
T2 sequence (looked up) 2: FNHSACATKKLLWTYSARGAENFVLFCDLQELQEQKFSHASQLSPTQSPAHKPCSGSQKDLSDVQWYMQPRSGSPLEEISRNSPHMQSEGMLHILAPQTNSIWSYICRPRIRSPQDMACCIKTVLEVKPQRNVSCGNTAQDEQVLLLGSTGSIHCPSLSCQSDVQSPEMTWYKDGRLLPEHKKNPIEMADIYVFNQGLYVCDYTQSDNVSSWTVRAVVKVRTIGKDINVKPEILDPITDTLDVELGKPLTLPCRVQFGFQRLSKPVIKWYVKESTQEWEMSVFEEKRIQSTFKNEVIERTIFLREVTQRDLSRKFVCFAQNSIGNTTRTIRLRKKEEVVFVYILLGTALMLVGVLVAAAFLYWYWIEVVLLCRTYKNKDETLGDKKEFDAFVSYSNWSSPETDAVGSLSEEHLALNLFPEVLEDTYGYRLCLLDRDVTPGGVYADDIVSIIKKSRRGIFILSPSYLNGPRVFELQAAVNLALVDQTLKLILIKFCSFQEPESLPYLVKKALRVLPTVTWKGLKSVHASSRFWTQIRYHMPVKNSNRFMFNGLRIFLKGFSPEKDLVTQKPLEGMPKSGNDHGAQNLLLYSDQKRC

[3] = biological target: T1, mouse IL-18 binding protein; assay: Octet BLI, monoFc scaffold
Method: (§1) Octet 96red instrument was used to determine affinities of IL18 proteins to BP or receptors. 5-10 ug/ml analyte proteins were used for loading on Sartorius tips (AHC or SA). […] 120-180 s loading, 200 s association and 800 s dissociation were used for kinetics. 3-7 data points were used to calculate affinities.
(§2) Several mouse variants were next tested for binding affinity to mouse IL-18R alpha and mouse IL-18BP.

[4] = biological target: T3, mouse IL-18 receptor alpha (mouse, UniProt Q61098 20-326, limits assumed); assay: Octet BLI, monoFc scaffold
T3 construct: also called Mouse IL18Ra; mouse IL-18R alpha
T3 sequence (looked up): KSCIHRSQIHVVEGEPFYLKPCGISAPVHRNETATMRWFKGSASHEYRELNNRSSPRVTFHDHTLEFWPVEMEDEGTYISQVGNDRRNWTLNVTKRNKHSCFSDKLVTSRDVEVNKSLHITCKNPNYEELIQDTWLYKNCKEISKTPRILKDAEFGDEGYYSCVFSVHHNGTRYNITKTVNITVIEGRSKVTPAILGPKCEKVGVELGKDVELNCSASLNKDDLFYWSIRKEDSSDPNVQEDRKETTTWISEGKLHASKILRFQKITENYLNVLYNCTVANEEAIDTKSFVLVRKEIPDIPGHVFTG
Method: as §1, §2

[5] = biological target: T4, IL-18 receptors on HEK-Blue IL-18 reporter cells (UniProt Q13478 19-541; O95256 20-599, limits assumed); assay: cell-based or functional assay
T4 sequence (looked up) 1: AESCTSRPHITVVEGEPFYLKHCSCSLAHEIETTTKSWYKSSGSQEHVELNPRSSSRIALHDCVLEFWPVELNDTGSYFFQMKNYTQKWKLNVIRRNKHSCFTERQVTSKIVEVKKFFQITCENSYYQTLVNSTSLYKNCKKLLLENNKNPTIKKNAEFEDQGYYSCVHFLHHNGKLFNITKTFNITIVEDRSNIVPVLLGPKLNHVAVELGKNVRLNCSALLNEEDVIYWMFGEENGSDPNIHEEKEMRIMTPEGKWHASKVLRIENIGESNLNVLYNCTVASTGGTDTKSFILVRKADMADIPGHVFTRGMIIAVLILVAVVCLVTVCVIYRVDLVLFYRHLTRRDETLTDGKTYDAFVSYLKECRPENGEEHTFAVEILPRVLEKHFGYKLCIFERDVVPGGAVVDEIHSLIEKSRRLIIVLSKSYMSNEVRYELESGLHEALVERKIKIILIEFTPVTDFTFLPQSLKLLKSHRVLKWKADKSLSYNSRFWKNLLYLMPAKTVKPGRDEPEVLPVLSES
T4 sequence (looked up) 2: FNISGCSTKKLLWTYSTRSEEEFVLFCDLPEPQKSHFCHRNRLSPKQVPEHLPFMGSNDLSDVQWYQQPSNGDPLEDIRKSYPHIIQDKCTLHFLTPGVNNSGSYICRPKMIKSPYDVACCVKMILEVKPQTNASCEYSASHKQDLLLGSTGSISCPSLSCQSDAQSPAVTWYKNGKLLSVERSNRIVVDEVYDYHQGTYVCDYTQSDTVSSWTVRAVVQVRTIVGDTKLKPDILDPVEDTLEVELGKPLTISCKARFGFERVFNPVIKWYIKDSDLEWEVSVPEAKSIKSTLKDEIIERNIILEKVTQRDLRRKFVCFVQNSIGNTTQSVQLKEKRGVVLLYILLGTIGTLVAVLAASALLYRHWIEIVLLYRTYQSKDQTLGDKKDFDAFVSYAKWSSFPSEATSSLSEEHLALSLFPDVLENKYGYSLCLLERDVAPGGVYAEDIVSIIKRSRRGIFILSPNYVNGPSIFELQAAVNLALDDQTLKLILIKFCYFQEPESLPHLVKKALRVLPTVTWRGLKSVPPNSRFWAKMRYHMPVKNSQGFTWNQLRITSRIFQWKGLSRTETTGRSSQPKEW

[6] = biological target: T5, interleukin 18 binding protein (IL-18BP) (UniProt O95998 31-194); assay: cell-based or functional assay
T5 sequence (looked up): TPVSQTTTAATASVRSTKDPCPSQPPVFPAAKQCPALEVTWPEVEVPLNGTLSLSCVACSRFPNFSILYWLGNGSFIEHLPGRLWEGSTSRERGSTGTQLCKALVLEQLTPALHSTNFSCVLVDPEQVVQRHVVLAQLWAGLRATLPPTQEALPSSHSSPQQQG

B1: mouse IL-18 G3T, H6K, K52A on monoFc scaffold (Fc fusion, not shown: small tags and cut ends)
chain: NFTRLKSTTAVIRNINDQVLFVDKRQPVFEDMTDIDQSASEPQTRLIIYMYADSEVRGLAVTLSVKDSKMSTLSSKNKIISFEEMDPPENIDDIQSDLIFFQKRVPGHNKMEFESSLYEGHFLACQKEDDAFKLILKKKDENGDKSVMFTLTNLHQSNGGPSVFLFPPKPKDTLMISRTPEVTCVVVDVSHEDPEVKFNWYVDGVEVHNAKTKPREEQYNSTYRVVSVLTVLHQDWLNGKEYKCKVSNKALPAPIEKTISKAKGQPREPQVYTLPPSREEMTKNQVNLTCLVKGFYPSDIAVEWESNGQPENNYKTTPPVLDSDGSFFLNSTLTVDKSRWQQGNVFSCSVMHEALHNHYTQKSLSLS
**Q.** Which results are given for B1?
**A.** mouse IL-18 reporter assay EC50, +Mouse IL-18BP 50 nM [1]: 1.69 pM; mouse IL-18 reporter assay EC50, without mouse IL-18BP [2]: 1.76 pM; Kd [3]: 78000 pM; Kd [4]: 42700 pM

B2: mouse IL-18 G3T, K52A on monoFc scaffold (Fc fusion, not shown: small tags and cut ends)
chain: NFTRLHSTTAVIRNINDQVLFVDKRQPVFEDMTDIDQSASEPQTRLIIYMYADSEVRGLAVTLSVKDSKMSTLSSKNKIISFEEMDPPENIDDIQSDLIFFQKRVPGHNKMEFESSLYEGHFLACQKEDDAFKLILKKKDENGDKSVMFTLTNLHQSNGGPSVFLFPPKPKDTLMISRTPEVTCVVVDVSHEDPEVKFNWYVDGVEVHNAKTKPREEQYNSTYRVVSVLTVLHQDWLNGKEYKCKVSNKALPAPIEKTISKAKGQPREPQVYTLPPSREEMTKNQVNLTCLVKGFYPSDIAVEWESNGQPENNYKTTPPVLDSDGSFFLNSTLTVDKSRWQQGNVFSCSVMHEALHNHYTQKSLSLS
**Q.** With B2 as the binder, how does the “mouse IL-18 reporter assay EC50, +Mouse IL-18BP 50 nM” value [1] read?
**A.** 20.8 pM

**Q.** And the “mouse IL-18 reporter assay EC50, without mouse IL-18BP” value [2]?
**A.** 1.24 pM

**Q.** What about the Kd [3] of the same binder?
**A.** 11000 pM

**Q.** And the Kd [4]?
**A.** 97000 pM

B3: IL-18 variant K53S, S55K (ligand)
chain: YFGKLESKLSVIRNLNDQVLFIDQGNRPLFEDMTDSDMRDNAPRTIFIISMYSDKQPRGMAVTISVKSEKISTLSSENKIISFKEMNPPDNIKDTKSDIIFFQRSVPGHDNKMQFESSSYEGYFLASEKERDLFKLILKKEDELGDRSIMFTVQNED
**Q.** For B3, which “HEK-blue EC50 (pM) - BP” value [5] is on record?
**A.** 21.8 pM

**Q.** What about the “HEK-blue EC50 (pM) + 300 nM BP” value [6] of the same binder?
**A.** 18.1 pM

**Q.** What about the Ratio [6] of the same binder?
**A.** 0.8

B4: IL-18 variant K53S, S55Y (ligand)
chain: YFGKLESKLSVIRNLNDQVLFIDQGNRPLFEDMTDSDMRDNAPRTIFIISMYSDYQPRGMAVTISVKSEKISTLSSENKIISFKEMNPPDNIKDTKSDIIFFQRSVPGHDNKMQFESSSYEGYFLASEKERDLFKLILKKEDELGDRSIMFTVQNED
**Q.** What does the source list for B4?
**A.** HEK-blue EC50 (pM) - BP [5]: 70 pM; HEK-blue EC50 (pM) + 300 nM BP [6]: 136 pM; Ratio [6]: 1.9

B5: IL-18 variant K53T, S55A (ligand)
chain: YFGKLESKLSVIRNLNDQVLFIDQGNRPLFEDMTDSDMRDNAPRTIFIISMYTDAQPRGMAVTISVKSEKISTLSSENKIISFKEMNPPDNIKDTKSDIIFFQRSVPGHDNKMQFESSSYEGYFLASEKERDLFKLILKKEDELGDRSIMFTVQNED
**Q.** Which results are given for B5?
**A.** HEK-blue EC50 (pM) - BP [5]: 67.4 pM; HEK-blue EC50 (pM) + 300 nM BP [6]: 140 pM; Ratio [6]: 2.1

B6: IL-18 variant K53S, S55G (ligand)
chain: YFGKLESKLSVIRNLNDQVLFIDQGNRPLFEDMTDSDMRDNAPRTIFIISMYSDGQPRGMAVTISVKSEKISTLSSENKIISFKEMNPPDNIKDTKSDIIFFQRSVPGHDNKMQFESSSYEGYFLASEKERDLFKLILKKEDELGDRSIMFTVQNED
**Q.** B6 was tested. Which “HEK-blue EC50 (pM) - BP” value [5] did it give?
**A.** 33.4 pM

**Q.** What about the “HEK-blue EC50 (pM) + 300 nM BP” value [6] of the same binder?
**A.** 103 pM

**Q.** What about the Ratio [6] of the same binder?
**A.** 3.1

B7: IL-18 variant K53H, S55V (ligand)
chain: YFGKLESKLSVIRNLNDQVLFIDQGNRPLFEDMTDSDMRDNAPRTIFIISMYHDVQPRGMAVTISVKSEKISTLSSENKIISFKEMNPPDNIKDTKSDIIFFQRSVPGHDNKMQFESSSYEGYFLASEKERDLFKLILKKEDELGDRSIMFTVQNED
**Q.** How did the “HEK-blue EC50 (pM) - BP” value [5] turn out when B7 was run?
**A.** 45.5 pM

**Q.** And the “HEK-blue EC50 (pM) + 300 nM BP” value [6]?
**A.** > 200 pM

**Q.** And the Ratio [6]?
**A.** 10.1

B8: IL-18 variant K53T, S55P (ligand)
chain: YFGKLESKLSVIRNLNDQVLFIDQGNRPLFEDMTDSDMRDNAPRTIFIISMYTDPQPRGMAVTISVKSEKISTLSSENKIISFKEMNPPDNIKDTKSDIIFFQRSVPGHDNKMQFESSSYEGYFLASEKERDLFKLILKKEDELGDRSIMFTVQNED
**Q.** How did the “HEK-blue EC50 (pM) - BP” value [5] turn out when B8 was run?
**A.** 103 pM

**Q.** What about the “HEK-blue EC50 (pM) + 300 nM BP” value [6] of the same binder?
**A.** 133 pM

**Q.** What about the Ratio [6] of the same binder?
**A.** 1.3

B9: Comparator 5 (ligand)
chain: HFGRLHCTTAVIRNINDQVLFVDKRQPVFEDMTDIDQSASEPQTRLIIYAYGDSRARGKAVTLSVKDSKMSTLSCKNKIISFEEMDPPENIDDIQSDLIFFQKRVPGHNKMEFESSLYEGHFLACQKEDDAFKLILKKKDENGDKSVMFTLTNLHQS
**Q.** Which results are given for B9?
**A.** mouse IL-18 reporter assay EC50, +Mouse IL-18BP 50 nM [1]: 0.91 pM; mouse IL-18 reporter assay EC50, without mouse IL-18BP [2]: 1.49 pM
